We go through 2 sequences from PMC6770890.

For the series, the target named is T1, H-NS (Salmonella enterica serovar Typhimurium ATCC 14028s) (UniProt A0A0F6B244).
T1 sequence: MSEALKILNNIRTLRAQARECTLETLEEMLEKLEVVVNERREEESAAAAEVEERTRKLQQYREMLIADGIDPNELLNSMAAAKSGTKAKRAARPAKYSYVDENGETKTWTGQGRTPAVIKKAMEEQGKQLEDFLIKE
Description: EMSA. The settings on record: 20 mM Tris-HCl, 1 mM EDTA, 100 ug/mL BSA, 1 mM DTT, 10% glycerol, 80 mM NaCl, 25 C, 30 min; 50 ng DNA in 20 uL, protein 0-9.76 uM; pH 7.5 or 5.5 in Fig. 5B …. On the technique in general: Mobility shift assays separate free from complexed probe on a gel.

Consider “CAAAGACGCCGAGAATGTGAAAAAATTCGTTCAGGCTTATCAGTCTGATGAAGTGTACGAAGCCGCAAATAAAGTTTTTAATGGCGGCGCGGTGAAAGGCTGGTAAGTTTTAGGCTGATTCCACAATCTGTAATATTATTCAGGACGGGCTATTGCCCGTCTTGTCATTTATGCAAGCTCCTGATTCAATATCTGGC (double strand) [yaeB promoter (PyaeB)]”, for which the binding result is “binds”.
On to “GCCGTGCTGTTCACTCATCCGCGCCACCAGCCGGTCAAGGTGCAGACGGGCAATCACGCCACGCGACGTTTCGTCCAGCGGCAGGTAAGGGATCACCGTCACGCGGCCCAGAAATGCCGCCGGGAAATGCTTGCGCAATTCCGGCATTAGCGCCTCTTTAAGCCCCGTAGCATCGGGCATTAAGGCCGGATCTTCACACATCTGGCTGATGAGGTCGGAACCCACGTTGGTGGTGAGTAATAGCGTGGTG (double strand) [STM0272 fragment]”, for which the binding result is reported as “no binding”.
